Measurements from IntAct's records for PubMed 21804599.

B1: "Na(+)/H(+) exchange regulatory cofactor NHE-RF1" (Homo sapiens), O14745 (parent)
chain: MSADAAAGAPLPRLCCLEKGPNGYGFHLHGEKGKLGQYIRLVEPGSPAEKAGLLAGDRLVEVNGENVEKETHQQVVSRIRAALNAVRLLVVDPETDEQLQKLGVQVREELLRAQEAPGQAEPPAAAEVQGAGNENEPREADKSHPEQRELRPRLCTMKKGPSGYGFNLHSDKSKPGQFIRSVDPDSPAEASGLRAQDRIVEVNGVCMEGKQHGDVVSAIRAGGDETKLLVVDRETDEFFKKCRVIPSQEHLNGPLPVPFTNGEIQKENSREALAEAALESPRPALVRSASSDTSEELNSQDSPPKQDSTAPSSTSSSDPILDFNISLAMAKERAHQKRSSKRAPQMDWSKKNELFSNL
partner: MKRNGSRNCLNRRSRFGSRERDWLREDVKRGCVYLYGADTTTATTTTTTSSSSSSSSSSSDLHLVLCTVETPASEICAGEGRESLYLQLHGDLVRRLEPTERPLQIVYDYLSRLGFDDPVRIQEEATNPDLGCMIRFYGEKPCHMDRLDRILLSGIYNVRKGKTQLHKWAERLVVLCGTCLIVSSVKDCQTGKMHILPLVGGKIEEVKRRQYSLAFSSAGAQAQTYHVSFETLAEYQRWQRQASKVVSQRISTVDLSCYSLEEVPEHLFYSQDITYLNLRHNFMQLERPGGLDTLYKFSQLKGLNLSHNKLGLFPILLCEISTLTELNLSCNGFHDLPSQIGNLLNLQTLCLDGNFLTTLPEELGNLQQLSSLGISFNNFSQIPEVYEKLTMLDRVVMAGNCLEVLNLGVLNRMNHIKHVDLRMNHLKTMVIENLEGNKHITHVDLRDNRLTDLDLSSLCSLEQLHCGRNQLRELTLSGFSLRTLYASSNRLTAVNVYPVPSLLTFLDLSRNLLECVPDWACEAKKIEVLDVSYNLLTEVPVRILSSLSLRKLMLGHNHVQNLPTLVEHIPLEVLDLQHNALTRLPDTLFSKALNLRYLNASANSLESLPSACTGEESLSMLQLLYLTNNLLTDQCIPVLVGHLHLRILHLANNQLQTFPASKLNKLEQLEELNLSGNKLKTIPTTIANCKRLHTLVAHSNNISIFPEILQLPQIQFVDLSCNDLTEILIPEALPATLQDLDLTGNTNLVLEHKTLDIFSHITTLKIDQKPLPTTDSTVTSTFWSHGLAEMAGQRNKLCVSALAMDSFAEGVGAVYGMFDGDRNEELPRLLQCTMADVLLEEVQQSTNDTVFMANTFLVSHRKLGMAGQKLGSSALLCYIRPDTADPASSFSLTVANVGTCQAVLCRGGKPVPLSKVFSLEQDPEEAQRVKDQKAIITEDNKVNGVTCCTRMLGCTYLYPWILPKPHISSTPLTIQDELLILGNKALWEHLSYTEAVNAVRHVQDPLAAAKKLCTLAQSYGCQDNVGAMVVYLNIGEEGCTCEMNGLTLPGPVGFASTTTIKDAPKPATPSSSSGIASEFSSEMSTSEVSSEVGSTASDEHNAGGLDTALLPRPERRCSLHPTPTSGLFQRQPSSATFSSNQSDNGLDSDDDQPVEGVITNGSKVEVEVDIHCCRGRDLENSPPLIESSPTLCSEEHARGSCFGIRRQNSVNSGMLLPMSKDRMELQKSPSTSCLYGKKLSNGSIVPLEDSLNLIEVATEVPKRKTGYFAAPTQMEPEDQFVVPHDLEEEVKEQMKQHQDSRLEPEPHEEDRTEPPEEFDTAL
B2: "Na(+)/H(+) exchange regulatory cofactor NHE-RF1" (Homo sapiens), O14745 (parent)
chain: B1 chain
partner: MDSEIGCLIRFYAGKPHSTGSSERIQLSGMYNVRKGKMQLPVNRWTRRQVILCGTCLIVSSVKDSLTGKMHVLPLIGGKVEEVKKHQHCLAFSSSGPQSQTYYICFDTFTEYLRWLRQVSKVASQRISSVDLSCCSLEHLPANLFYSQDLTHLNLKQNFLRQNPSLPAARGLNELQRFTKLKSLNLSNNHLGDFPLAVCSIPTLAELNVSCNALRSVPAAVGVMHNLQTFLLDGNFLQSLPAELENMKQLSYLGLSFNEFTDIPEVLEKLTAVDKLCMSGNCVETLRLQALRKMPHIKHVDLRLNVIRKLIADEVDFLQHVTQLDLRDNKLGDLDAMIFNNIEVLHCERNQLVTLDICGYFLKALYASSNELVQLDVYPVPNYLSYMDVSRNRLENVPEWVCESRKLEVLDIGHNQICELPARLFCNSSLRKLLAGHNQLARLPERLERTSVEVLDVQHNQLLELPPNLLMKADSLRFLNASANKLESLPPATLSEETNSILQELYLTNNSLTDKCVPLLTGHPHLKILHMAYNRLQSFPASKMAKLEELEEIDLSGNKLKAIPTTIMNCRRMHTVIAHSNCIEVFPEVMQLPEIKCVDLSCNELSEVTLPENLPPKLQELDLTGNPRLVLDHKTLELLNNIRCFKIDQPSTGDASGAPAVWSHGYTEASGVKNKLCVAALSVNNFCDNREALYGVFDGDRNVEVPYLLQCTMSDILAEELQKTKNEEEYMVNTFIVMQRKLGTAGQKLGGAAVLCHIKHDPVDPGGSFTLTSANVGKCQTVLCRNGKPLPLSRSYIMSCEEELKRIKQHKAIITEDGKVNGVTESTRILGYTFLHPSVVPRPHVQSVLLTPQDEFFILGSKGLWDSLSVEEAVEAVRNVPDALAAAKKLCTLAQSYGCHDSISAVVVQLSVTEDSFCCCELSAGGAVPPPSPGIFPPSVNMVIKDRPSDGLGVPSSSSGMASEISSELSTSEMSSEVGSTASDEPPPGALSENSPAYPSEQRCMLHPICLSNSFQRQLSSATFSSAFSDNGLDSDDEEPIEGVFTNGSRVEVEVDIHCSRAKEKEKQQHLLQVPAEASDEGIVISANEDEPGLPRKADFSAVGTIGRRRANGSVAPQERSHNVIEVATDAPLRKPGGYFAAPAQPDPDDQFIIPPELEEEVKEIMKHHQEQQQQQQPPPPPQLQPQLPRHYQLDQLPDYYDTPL

Variants of: B1
Details: with phlp2_human PHLPP2, Q6ZVD8

| Variant | effect of a mutation on the interaction |
| --- | --- |
| MSADAAAGAPLPRLCCLEKGPNGYGFHLHGEKGKLGRYIRLVEPGSPAEKAGLLAGDRLVEVNGENVEKETHQQVVSRIRAALNAVRLLVVDPETDEQLQKLGVQVREELLRAQEAPGQAEPPAAAEVQGAGNENEPREADKSHPEQRELRPRLCTMKKGPSGYGFNLHSDKSKPGQFIRSVDPDSPAEASGLRAQDRIVEVNGVCMEGKQHGDVVSAIRAGGDETKLLVVDRETDEFFKKCRVIPSQEHLNGPLPVPFTNGEIQKENSREALAEAALESPRPALVRSASSDTSEELNSQDSPPKQDSTAPSSTSSSDPILDFNISLAMAKERAHQKRSSKRAPQMDWSKKNELFSNL [Q37R] | disrupting interaction |

Variants of: B2
Details: with PHLPP1, O60346-2

| Variant | effect of a mutation on the interaction |
| --- | --- |
| MSADAAAGAPLPRLCCLEKGPNGYGFHLHGEKGKLGRYIRLVEPGSPAEKAGLLAGDRLVEVNGENVEKETHQQVVSRIRAALNAVRLLVVDPETDEQLQKLGVQVREELLRAQEAPGQAEPPAAAEVQGAGNENEPREADKSHPEQRELRPRLCTMKKGPSGYGFNLHSDKSKPGQFIRSVDPDSPAEASGLRAQDRIVEVNGVCMEGKQHGDVVSAIRAGGDETKLLVVDRETDEFFKKCRVIPSQEHLNGPLPVPFTNGEIQKENSREALAEAALESPRPALVRSASSDTSEELNSQDSPPKQDSTAPSSTSSSDPILDFNISLAMAKERAHQKRSSKRAPQMDWSKKNELFSNL [Q37R] | disrupting interaction |
